# Laboratory results published in patent US20250250357A1 (NANJING ZAIMING PHARMACEUTICAL, published 2025).
# Changes are numbered by the printed parent chain.
# B1: S009-F3.74.20 (antibody, human IgG1, kappa, V domains shown)
# VH: RVQLQQSGAELVRPGASVTLSCKASGYTFTDSEMHWVKQTPVHGLEWIGAIDPEIDGTAYNQNFRDKAILTADKSSSTAYMELRSLTSEDSAVYYCTTYFGSGYGYFDVWGTGTTVTVSS
# VL: DVVMTQTPLSLSVSLGDQASISCRSSQSLVYSNGNTYLHWFLQKPGQSPKLLIYKVSNRFSGVPDRFSGSGSGTDFTLKINRVEAEDLGVYFCSQSTHIPFTFGAGTKLELKR
# notes: Human-murine chimeric antibody, human IgG1/kappa constant regions
# B2: S009-F3.7.3 (antibody, human IgG1, kappa, V domains shown)
# VH: EVNFEESGGGLVQPGGSMKLSCVASGFTFSNYWMNWVRQSPEKGLEWVAQIRLKSDNYATHYAESVKGRFTISRDDFKSSVYLQMNNLRAEDTGIYYCTVGTGGYWGQGTTLTVSS
# VL: DIVLTQSPASLAMSLGKRATISCRASESVSIVGTNVIHWFQQKPGQPPKLLIYHASNLETGVPARFSGSGSGTDFTLTIDPVEEDDVAIYHCLQSRKIPWTFGGGTKLEIKR
# notes: Human-murine chimeric antibody: murine VH/VL on human IgG1 heavy chain constant region and human kappa constant region
# B3: S009-F3.16.1 (antibody, human IgG1, kappa, V domains shown)
# VH: B2 VH with N3K, T71S, F77S, T99S
# VL: B2 VL with M13L, L15P, V32I, N35D, G72R, H91Y
# notes: as for B1
# B4: S009-F3-63.5 (antibody, human IgG1, kappa, V domains shown)
# VH: QVQLQQSGAELVRPGASVTLSCKASGYTFTDYEMHWVKQTPVHGLEWIGGIDPETGDTAYNQQFKGKAILTADRSSSTAYMELRSLTSEDSAVYYCTNYASSREDYWGQGTTLTVSS
# VL: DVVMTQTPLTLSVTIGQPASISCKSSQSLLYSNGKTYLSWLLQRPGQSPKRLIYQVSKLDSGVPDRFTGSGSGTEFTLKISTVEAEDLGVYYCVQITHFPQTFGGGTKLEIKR
# notes: as for B1
# B5: S009-F3.38.10 (antibody, human IgG1, kappa, V domains shown)
# VH: EVQLQQSGPVLVKPGASVKMSCEASGYIFTDYYMNWVKKSHGKSLEWIGVINPKNGVISHNQKFKGKATLTVDKSSNTAYMELSSLTSEDSAVYYCANYGSRFYAMDYWGQGTSVTVSS
# VL: DVVMTQTPLSLPVSLGDQASISCRSSQSLIHSDGNTYLQWYLQKSGQSPKLLIYKVSNRFSGVPDRFSGSGSGTDFTLKISRVETEDLGVYFCSQTTHVPFTFGSGTKLEIKR
# notes: as for B1
# B6: S009-F3.80.22 (antibody, human IgG1, kappa, V domains shown)
# VH: QVQLQQSGAELVRPGASVTLSCKASGYTFTDYEIHWVKQTPVHGLEWIGAFDPEIGGSAYNQKFKDRATLTADKSSSTAYMELHSLTAEDSAVYYCTDYYGSSSGYFDVWGTGTTVTVSS
# VL: B5 VL with I30E, S32N, D33N, Q39H, Y41F, Q43H, S45P, T85A, T96S
# notes: as for B1
# B7: F2.39.3-H5 (scFv, not shown: small tags and cut ends)
# scFv: EVQLVQSGAEVKKPGASVKVSCKASGYTFTNYWMHWVRQAPGQGLEWMGNINPSSGDSYYNERFMSRVTMTVDKSTSTAYMELSSLRSEDTAVYYCARSGGLWLAFWGQGTLVTVSSGGGGSGGGGSGGGGSDIVMTQSPDSLAVSLGERATINCKSSQTLLNSVSQNNYLAWYQQKPGQSPKLLIYFASTRESGVPDRFSGSGSGTDFTLTISSLQAEDVAVYYCQQHYRTPYTFGGGTKVEIK
# notes: also called S009-F2.39.3 humanized VH2 + VL1
# Molecular target: T1, human MSLN-R2-his protein (human, UniProt Q13421 391-486)
# T1 construct: also called human MSLN-R2 protein; hMSLN-R2-his; not shown: His tag
# T1 sequence (Q13421 other isoform, or with tags, fused parts or gaps): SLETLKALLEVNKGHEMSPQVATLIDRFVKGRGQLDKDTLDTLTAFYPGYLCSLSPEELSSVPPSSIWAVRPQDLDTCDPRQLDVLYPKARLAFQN
# Assay: ELISA, coated antigen; antibody 1 nM
row,OD450 [OD450],Binder
1,0.09,B1
2,0.07,B2
3,0.06,B3
4,0.05,B4
5,0.21,B5
6,0.06,B6

# Molecular target: T2, human MSLN-R3-his protein (human, UniProt Q13421 487-598)
# T2 construct: also called human MSLN-R3 protein; hMSLN-R3-his; not shown: His tag
# T2 sequence (Q13421 495-606): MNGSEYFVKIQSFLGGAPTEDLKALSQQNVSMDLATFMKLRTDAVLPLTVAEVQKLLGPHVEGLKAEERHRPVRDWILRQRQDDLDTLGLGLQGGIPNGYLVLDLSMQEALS
# Assay: ELISA, coated antigen; antibody 1 nM
row,OD450 [OD450],Binder
1,1.88,B1
2,1.63,B2
3,1.8,B3
4,1.78,B4
5,1.71,B5
6,1.91,B6

# Molecular target: T3, human MSLN-R3-3 polypeptide (human)
# T3 construct: also called human MSLN-R3-3 protein; hMSLN-R3-3
# Assay: ELISA, coated antigen; antibody 1 nM
row,OD450 [OD450],Binder
1,1.83,B1
2,0.07,B2
3,0.07,B3
4,1.75,B4
5,0.08,B5
6,1.84,B6

# Molecular target: T1, human MSLN-R2-his protein
# Assay: ELISA, coated antigen; antibody 10 nM
row,OD450 [OD450],Binder
1,0.17,B1
2,0.09,B2
3,0.08,B3
4,0.07,B4
5,0.18,B5
6,0.17,B6

# Molecular target: T2, human MSLN-R3-his protein
# Assay: ELISA, coated antigen; antibody 10 nM
row,OD450 [OD450],Binder
1,1.83,B1
2,1.74,B2
3,1.91,B3
4,1.98,B4
5,1.85,B5
6,1.88,B6

# Molecular target: T3, human MSLN-R3-3 polypeptide
# Assay: ELISA, coated antigen; antibody 10 nM
row,OD450 [OD450],Binder
1,1.9,B1
2,0.08,B2
3,0.08,B3
4,1.95,B4
5,0.1,B5
6,1.91,B6

# Molecular target: T1, human MSLN-R2-his protein
# Assay: ELISA, coated antigen; antibody 0.1 nM
row,OD450 [OD450],Binder
1,0.06,B1
2,0.07,B2
3,0.18,B3
4,0.05,B4
5,0.18,B5
6,0.06,B6

# Molecular target: T1, human MSLN-R2-his protein
# Assay: ELISA, coated antigen; antibody 100 nM
row,OD450 [OD450],Binder
1,0.09,B1
2,0.12,B2
3,0.12,B3
4,0.09,B4
5,0.13,B5
6,0.06,B6

# Molecular target: T2, human MSLN-R3-his protein
# Assay: ELISA, coated antigen; antibody 0.1 nM
row,OD450 [OD450],Binder
1,1.07,B1
2,1.13,B2
3,1.61,B3
4,1.43,B4
5,1.47,B5
6,1.55,B6

# Molecular target: T2, human MSLN-R3-his protein
# Assay: ELISA, coated antigen; antibody 100 nM
row,OD450 [OD450],Binder
1,2.06,B1
2,2.16,B2
3,1.92,B3
4,2.36,B4
5,2.05,B5
6,2.02,B6

# Molecular target: T3, human MSLN-R3-3 polypeptide
# Assay: ELISA, coated antigen; antibody 0.1 nM
row,OD450 [OD450],Binder
1,0.96,B1
2,0.07,B2
3,0.08,B3
4,1.46,B4
5,0.08,B5
6,1.47,B6

# Molecular target: T3, human MSLN-R3-3 polypeptide
# Assay: ELISA, coated antigen; antibody 100 nM
row,OD450 [OD450],Binder
1,2.07,B1
2,0.11,B2
3,0.11,B3
4,2.3,B4
5,0.32,B5
6,1.93,B6

# Molecular target: T1, human MSLN-R2-his protein
# Assay: ELISA, coated antigen; antibody 0.01 nM
row,OD450 [OD450],Binder
1,0.06,B1
2,0.06,B2
3,0.06,B3
4,0.05,B4
5,0.11,B5
6,0.07,B6

# Molecular target: T2, human MSLN-R3-his protein
# Assay: ELISA, coated antigen; antibody 0.01 nM
row,OD450 [OD450],Binder
1,0.29,B1
2,0.43,B2
3,0.65,B3
4,0.41,B4
5,0.41,B5
6,0.51,B6

# Molecular target: T3, human MSLN-R3-3 polypeptide
# Assay: ELISA, coated antigen; antibody 0.01 nM
row,OD450 [OD450],Binder
1,0.21,B1
2,0.07,B2
3,0.07,B3
4,0.4,B4
5,0.08,B5
6,0.55,B6

# Molecular target: T1, human MSLN-R2-his protein
# Assay: ELISA, coated antigen; antibody 0.001 nM
row,OD450 [OD450],Binder
1,0.06,B1
2,0.07,B2
3,0.06,B3
4,0.05,B4
5,0.06,B5
6,0.06,B6

# Molecular target: T2, human MSLN-R3-his protein
# Assay: ELISA, coated antigen; antibody 0.001 nM
row,OD450 [OD450],Binder
1,0.1,B1
2,0.11,B2
3,0.15,B3
4,0.1,B4
5,0.12,B5
6,0.12,B6

# Molecular target: T3, human MSLN-R3-3 polypeptide
# Assay: ELISA, coated antigen; antibody 0.001 nM
row,OD450 [OD450],Binder
1,0.09,B1
2,0.07,B2
3,0.08,B3
4,0.1,B4
5,0.08,B5
6,0.15,B6

# Molecular target: T1, human MSLN-R2-his protein
# Assay: ELISA, coated antigen; antibody 0.0001 nM
row,OD450 [OD450],Binder
1,0.06,B1
2,0.07,B2
3,0.06,B3
4,0.06,B4
5,0.07,B5
6,0.07,B6

# Molecular target: T2, human MSLN-R3-his protein
# Assay: ELISA, coated antigen; antibody 0.0001 nM
row,OD450 [OD450],Binder
1,0.07,B1
2,0.07,B2
3,0.08,B3
4,0.06,B4
5,0.08,B5
6,0.08,B6

# Molecular target: T3, human MSLN-R3-3 polypeptide
# Assay: ELISA, coated antigen; antibody 0.0001 nM
row,OD450 [OD450],Binder
1,0.07,B1
2,0.07,B2
3,0.07,B3
4,0.07,B4
5,0.07,B5
6,0.08,B6

# Molecular target: T4, human MSLN-hFc protein (Acro, Cat. No. MSN-H5253) (human, UniProt Q13421 296-580)
# T4 construct: bought protein; also called human MSLN full-length protein; not shown: human Fc (hFc) of the bought protein
# T4 sequence (Q13421 other isoform, or with tags, fused parts or gaps limits assumed): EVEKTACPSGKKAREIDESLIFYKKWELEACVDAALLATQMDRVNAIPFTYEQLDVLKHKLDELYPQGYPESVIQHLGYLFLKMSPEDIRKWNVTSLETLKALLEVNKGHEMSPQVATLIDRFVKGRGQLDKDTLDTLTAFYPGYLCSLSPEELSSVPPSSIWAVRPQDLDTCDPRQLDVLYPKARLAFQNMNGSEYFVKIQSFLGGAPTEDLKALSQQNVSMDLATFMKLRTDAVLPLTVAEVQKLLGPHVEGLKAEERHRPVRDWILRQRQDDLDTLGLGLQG
# Assay: ELISA, coated human MSLN-hFc, antibody 1 nM
row,OD450 nm,Binder
1,0.39,B7

# Molecular target: T4, human MSLN-hFc protein (Acro, Cat. No. …)
# Assay: ELISA, coated human MSLN-hFc, antibody 10 nM
row,OD450 nm,Binder
1,1.21,B7

# Molecular target: T4, human MSLN-hFc protein (Acro, Cat. No. …)
# Assay: ELISA, coated human MSLN-hFc, antibody 0.1 nM
row,OD450 nm,Binder
1,0.11,B7

# Molecular target: T4, human MSLN-hFc protein (Acro, Cat. No. …)
# Assay: ELISA, coated human MSLN-hFc, antibody 100 nM
row,OD450 nm,Binder
1,1.87,B7

# Molecular target: T4, human MSLN-hFc protein (Acro, Cat. No. …)
# Assay: ELISA, coated human MSLN-hFc, antibody 0.01 nM
row,OD450 nm,Binder
1,0.06,B7

# Molecular target: T4, human MSLN-hFc protein (Acro, Cat. No. …)
# Assay: ELISA, coated human MSLN-hFc, antibody 0.001 nM
row,OD450 nm,Binder
1,0.06,B7

# Molecular target: T4, human MSLN-hFc protein (Acro, Cat. No. …)
# Assay: ELISA, coated human MSLN-hFc, antibody 0.0001 nM
row,OD450 nm,Binder
1,0.06,B7

# Molecular target: T1, human MSLN-R2-his protein
# Assay: ELISA, coated antigen; no antibody (blank, column 'none')
row,OD450 [OD450],Binder
1,0.07,B1
2,0.08,B2
3,0.08,B3
4,0.07,B4
5,0.08,B5
6,0.07,B6

# Molecular target: T2, human MSLN-R3-his protein
# Assay: as above
row,OD450 [OD450],Binder
1,0.09,B1
2,0.08,B2
3,0.09,B3
4,0.06,B4
5,0.09,B5
6,0.08,B6

# Molecular target: T3, human MSLN-R3-3 polypeptide
# Assay: as above
row,OD450 [OD450],Binder
1,0.07,B1
2,0.08,B2
3,0.08,B3
4,0.07,B4
5,0.07,B5
6,0.08,B6
